Results on one substance are retold here after patent US20110027909A1, “Chimera Compositions and Methods of Use” (priority 2009, published 2011).

Experiment [1] has as its target T1, CRF-BP(10 Kd)_CRFR2 chimera (Homo sapiens, UniProt P24387+Q13324).
T1 construct: The CRF-BP (10 Kd) fragment is comprised of 88 amino acid residues (A235 to L322); DNA encoding the CRFR2 protein was amplified using the ssHA CRFR2_Zeo plasmid DNA template; FLAG (N); expressed in transfected cells
T1 sequence (P24387+Q13324 with tags, fused parts or gaps): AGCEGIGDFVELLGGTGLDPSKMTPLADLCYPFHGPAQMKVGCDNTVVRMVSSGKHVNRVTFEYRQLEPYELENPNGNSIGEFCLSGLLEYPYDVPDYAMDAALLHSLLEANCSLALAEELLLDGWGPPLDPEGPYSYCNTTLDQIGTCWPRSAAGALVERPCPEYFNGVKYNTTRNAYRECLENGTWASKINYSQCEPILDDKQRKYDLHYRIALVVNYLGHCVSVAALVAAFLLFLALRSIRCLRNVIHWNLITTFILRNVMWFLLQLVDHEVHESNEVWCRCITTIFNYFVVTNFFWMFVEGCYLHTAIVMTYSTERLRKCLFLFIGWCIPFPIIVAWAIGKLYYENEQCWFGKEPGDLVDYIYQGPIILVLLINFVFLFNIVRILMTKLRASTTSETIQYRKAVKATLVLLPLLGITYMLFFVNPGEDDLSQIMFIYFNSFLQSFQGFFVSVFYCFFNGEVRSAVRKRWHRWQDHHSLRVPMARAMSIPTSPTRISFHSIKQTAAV
Briefly: FLIPR intracellular calcium release, HEK 293 cells expressing CRF-BP(10 Kd)_CRFR2 chimera. Type of experiment: cell-based. As for the experimental part: (§1) The mammalian cells expressing the isolated chimera constructs were tested for the ability of the chimera proteins to activate intracellular calcium release via signaling through Gq. HEK 293 cells of Example 2 expressing the constructs of Example 1 were grown in 10% FBS in DMEM cell media with hygromycin (0.4%) selection reagent. Cells were plated out in 96-well plates (40 000 cells/well) in FBS/DMEM media. On the following day, cells were serum starved (1% FBS in DMEM; 100 μl/well) for 2 hours prior to testing.
(§2) Cells were loaded with diluted FLIPR™ dye (100 μl) for one hour prior to testing with CRF. The selected hygromycin resistant cells were plated in 96-well clear bottom black microplates at a density of approximately 40,000 cells/well, in DMEM/10% FBS media. […]
(§3) A FlexStation (Molecular Devices) fluorometric imaging plate reader was used to measure changes in intracellular Ca^2+. […] The machine was used in Flex mode, and the fluorescent intensity was measured from the bottom with the excitation at 485 nm and emission at 525 nm for 120 seconds at 21° C.
Results are expressed as the mean (±SEM) relative fluorescent units (RFUs), calculated as agonist-induced maximum Ca^2+ peak/cell number×1000.
Background: Calcium assays in cells follow changes in intracellular calcium, usually with a dye or a luminescent sensor.

Experiment [2] has as its system recombinant dopamine receptor. Briefly: Negative control calcium release, HEK 293 cells expressing a recombinant dopamine receptor. It counts as cell-based. The following applies: HEK 293 cells expressing recombinant dopamine receptor; FIG. 7. The method, then:
(§4) As a negative control, the effect of CRF on HEK 293 cells that had not been transfected or which expressed a recombinant dopamine receptor was measured.

Another experiment has as its system IGF-BP2_CRFR chimera. Nature of the experiment: FLIPR intracellular calcium release, HEK-293 cells expressing IGF-BP2_CRFR2 chimera. Type of experiment: cell-based, human. The following applies: CRF 1 pM-10 μM, FIG. 13. The method, then:
The mammalian cells expressing the various isolated chimera constructs were tested for the ability of the chimera proteins to activate intracellular calcium release. The HEK-293 cells expressing the constructs of Example 9 were grown in 10% FBS in DMEM cell media with hygromycin (0.4%) selection reagent. The cells were plated out in 96-well plates (40 000 cells/well) in FBS/DMEM media. On the following day, cells were serum starved (1% FBS in DMEM; 100 μl/well) for 2 hours prior to testing.
The cells were loaded with diluted FLIPR™ dye (100 μl) for one hour prior to testing with CRF. The selected hygromycin resistant cells were plated in 96-well clear bottom black microplates at a density of approximately 40,000 cells/well, in DMEM/10% FBS media. […]
as §3
The results of the FLIPR experiments detecting the levels of intracellular calcium induced by activation of the chimeras with CRF are shown in FIG. 13. […] Results are expressed as the mean (±SEM) relative fluorescence units (RFU), calculated as agonist-induced maximum Ca^2+ peak/cell number×1000.

The target in the next experiment is T2, CRF-BP(FL)_CRFR2 chimera (Homo sapiens, UniProt P24387+Q13324).
T2 construct: DNA encoding the CRFR2 protein was amplified using the ssHA CRFR2_Zeo plasmid DNA template; FLAG (N); expressed in transfected cells
T2 sequence (P24387+Q13324 with tags, fused parts or gaps): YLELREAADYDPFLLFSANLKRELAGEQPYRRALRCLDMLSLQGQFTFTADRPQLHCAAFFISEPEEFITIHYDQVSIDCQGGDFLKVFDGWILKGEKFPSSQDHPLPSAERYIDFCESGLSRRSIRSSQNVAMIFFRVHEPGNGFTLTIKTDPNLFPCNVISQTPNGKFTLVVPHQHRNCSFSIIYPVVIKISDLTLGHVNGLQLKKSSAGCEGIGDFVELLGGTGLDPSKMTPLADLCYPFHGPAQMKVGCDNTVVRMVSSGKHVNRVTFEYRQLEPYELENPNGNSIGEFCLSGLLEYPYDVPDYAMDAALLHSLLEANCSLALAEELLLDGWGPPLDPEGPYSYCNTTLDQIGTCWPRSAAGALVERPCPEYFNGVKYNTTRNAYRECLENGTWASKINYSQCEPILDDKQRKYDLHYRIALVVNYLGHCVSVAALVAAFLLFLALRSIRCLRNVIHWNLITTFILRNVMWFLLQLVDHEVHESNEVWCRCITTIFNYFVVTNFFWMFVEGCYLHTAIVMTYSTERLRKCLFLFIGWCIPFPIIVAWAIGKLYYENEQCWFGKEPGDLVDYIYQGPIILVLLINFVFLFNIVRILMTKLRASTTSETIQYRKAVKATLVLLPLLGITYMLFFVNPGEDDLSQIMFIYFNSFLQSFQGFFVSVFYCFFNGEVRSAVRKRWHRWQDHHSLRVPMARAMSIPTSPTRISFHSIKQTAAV
Nature of the experiment: FLIPR intracellular calcium release, agonist mode, HEK 293 cells expressing full-length CRF-BP_CRFR2 chimera. Type of experiment: cell-based. The method, then:
as §1, §2, §3
The results of the FLIPR experiments detecting the levels of intracellular calcium induced by activation of the chimera with CRF are shown in FIGS. 3-5. […] Results are expressed as the mean (±SEM) relative fluorescent units (RFU), calculated as agonist-induced maximum Ca^2+ peak/cell number×1000.

The next experiment concerns the target T3, CRF-BP_NK1R chimera (Homo sapiens, UniProt P24387+P25103).
T3 construct: the construct used to create a CRF-BP(FL)_NK1R chimera; FLAG (N); expressed in transfected cells
Briefly: FLIPR intracellular calcium release, HEK-293 cells expressing CRF-BP_NK1R chimera. It counts as cell-based. The following applies: 1 pM-10 μM, FIGS. 9, 10.

The test system of experiment [3] is untransfected HEK 293 cells. Briefly: Negative control calcium release, HEK 293 cells not transfected. It counts as cell-based, human. The following applies: FIG. 7. As for the experimental part: as §4
Where [4] appears, read: CRF, intracellular calcium release.

T3 sequence (P24387+P25103 fused, change not shown): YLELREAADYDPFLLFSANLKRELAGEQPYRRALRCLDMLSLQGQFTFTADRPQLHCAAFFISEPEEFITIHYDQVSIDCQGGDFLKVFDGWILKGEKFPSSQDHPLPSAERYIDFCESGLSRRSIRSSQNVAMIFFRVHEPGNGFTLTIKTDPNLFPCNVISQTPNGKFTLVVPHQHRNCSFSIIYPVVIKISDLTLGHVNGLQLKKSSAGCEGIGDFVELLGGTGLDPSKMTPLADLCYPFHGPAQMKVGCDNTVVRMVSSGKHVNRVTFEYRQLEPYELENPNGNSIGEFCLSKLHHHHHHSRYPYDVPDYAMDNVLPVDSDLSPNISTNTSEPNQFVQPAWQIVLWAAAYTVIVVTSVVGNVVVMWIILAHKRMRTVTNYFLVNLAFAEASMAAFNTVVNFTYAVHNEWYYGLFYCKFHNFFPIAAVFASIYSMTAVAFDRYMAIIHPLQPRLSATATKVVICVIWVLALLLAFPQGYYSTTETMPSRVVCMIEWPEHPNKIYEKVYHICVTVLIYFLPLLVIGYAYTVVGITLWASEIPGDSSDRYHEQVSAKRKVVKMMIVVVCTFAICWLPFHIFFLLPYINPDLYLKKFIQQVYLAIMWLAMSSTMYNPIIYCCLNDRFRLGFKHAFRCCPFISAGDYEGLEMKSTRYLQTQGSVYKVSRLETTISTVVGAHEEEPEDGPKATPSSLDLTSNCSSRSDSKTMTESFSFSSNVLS
Procedure for CRF-BP_NK1R chimera: The mammalian cells expressing the various isolated chimera constructs were tested for the ability of the chimera proteins to activate intracellular calcium release. The HEK-293 cells of Example 5 expressing the constructs of Example 4 were grown in 10% FBS in DMEM cell media with hygromycin (0.4%) as a selection reagent. Cells were plated out in 96-well plates (40 000 cells/well) in FBS/DMEM media. On the following day, cells were serum starved (1% FBS in DMEM; 100 μl/well) for 2 hours prior to testing.

In the case of Corticotropin Releasing Factor [CRF], the “intracellular calcium release (RFU)” value was “even more robust signaling than the full-length CRF-BP_CRFR2 chimera” in experiment [1] (CRF 1 pM-10 μM, compared with full-length chimera, FIG. 6); “different levels of CRF-induced (1 pM-10 μM) intracellular calcium release in the HEK-293 cells corresponding to the concentration of CRF” in the experiment with IGF-BP2_CRFR chimera; “different levels of CRF-induced (1 pM-10 μM) intracellular calcium release in the HEK-293 cells corresponding to the concentration of CRF” with CRF-BP_NK1R chimera. The “signaling through the chimera compared with CRFR2 alone” value (in experiment [1] (setting [4]); with CRF-BP(FL)_CRFR2 chimera (setting [4])) was “more effectively than CRF at CRFR2 alone” throughout. The intracellular calcium signaling result in experiment [2] and in experiment [3] was “did not display any significant signaling” throughout. Further, the “intracellular calcium release (agonist-induced maximum Ca2+ peak, RFU)” value with CRF-BP(FL)_CRFR2 chimera (1 pM-10 μM, HEK 293 cells, FIGS. 3-5) is recorded as “increased as the concentration of CRF was increased”.
